Experimental data from PMC11645210 (Cell, 2024).

Key:
Test in all cases: SPR
Conditions in all cases: both partners purified
[1] = molecular target: SARS-CoV-2 BA.1 RBD (SARS-CoV-2, UniProt P0DTC2)
[2] = molecular target: SARS-CoV-2 XBB.1.5 RBD (SARS-CoV-2, UniProt P0DTC2)
[3] = molecular target: SARS-CoV-2 CH.1.1 RBD (SARS-CoV-2 Omicron CH.1.1, strain)
[4] = molecular target: SARS-CoV-2 BA.2 RBD (SARS-CoV-2 Omicron BA.2, strain)
[5] = molecular target: SARS-CoV-2 BA.2.75.2 RBD (SARS-CoV-2 Omicron BA.2.75.2, strain)
[6] = molecular target: SARS-CoV-2 XBB.1 RBD (SARS-CoV-2 Omicron XBB.1, strain)
[7] = molecular target: SARS-CoV-2 BQ.1.1 RBD (SARS-CoV-2, UniProt P0DTC2)

B1: VIR-7229 Fab fragment (Fab, V domains shown)
VH: EVQLVESGGSVVQPGRALRLSCAASGITFSSFGMYWVRQAPGKGLEWLGYIAYDGSDTYYADSVKGRFTISRDNSKNTLYLQMNSLRIEDTAVYYCAKDYYPLLSYYYGLDVWGQGTTVTVSS
VL: QSVLTQPRSVSGSPGQSVTISCTGTSSDVGAYNYVSWYQQHPGKAPKFMIYDVDQRPSGVPDRFSGSKSGNTASLIISGLQAEDEADYYCSSYAGSYIWVFGGGTQLTVL
notes: source: ExpiCHO (IgG1); Fab by fragmentation of the IgG with the FabLACTICA Fab kit
Kd [1]: 0.434 nM
koff [1]: 0.000124 s⁻¹
kon [1]: 285000 M⁻¹ s⁻¹
Kd [2]: 0.06 nM
koff [2]: 4.09e-05 s⁻¹
kon [2]: 752000 M⁻¹ s⁻¹
Kd [3]: 0.12 nM
koff [3]: 6.63e-05 s⁻¹
kon [3]: 586000 M⁻¹ s⁻¹
Kd [4]: 0.396 nM
koff [4]: 9.72e-05 s⁻¹
kon [4]: 245000 M⁻¹ s⁻¹
Kd [5]: 0.284 nM
koff [5]: 0.000117 s⁻¹
kon [5]: 431000 M⁻¹ s⁻¹
Kd [6]: 0.21 nM
koff [6]: 0.000108 s⁻¹
kon [6]: 524000 M⁻¹ s⁻¹
Kd [7]: 0.0993 nM
koff [7]: 5.63e-05 s⁻¹
kon [7]: 582000 M⁻¹ s⁻¹
